Values quoted from earlier work in paper PMC5741096.

Columns and labels:
[1] = target: IL-2Rβ/IL-2Rγ (Mus musculus) (UniProt P16297)
[2] = target: IL-2Rα/IL-2Rβ/IL-2Rγ (Mus musculus) (UniProt P01590)
Chain of UniProt P01590 (P01590 22-236, chain 1 of 3): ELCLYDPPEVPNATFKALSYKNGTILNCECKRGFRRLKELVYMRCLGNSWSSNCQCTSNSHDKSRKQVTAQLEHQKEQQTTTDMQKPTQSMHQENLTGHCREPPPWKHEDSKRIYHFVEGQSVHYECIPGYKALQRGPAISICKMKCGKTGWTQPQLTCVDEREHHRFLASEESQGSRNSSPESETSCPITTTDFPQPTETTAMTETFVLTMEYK
Chain of UniProt P01590 (P16297 27-240, chain 2 of 3, further chain): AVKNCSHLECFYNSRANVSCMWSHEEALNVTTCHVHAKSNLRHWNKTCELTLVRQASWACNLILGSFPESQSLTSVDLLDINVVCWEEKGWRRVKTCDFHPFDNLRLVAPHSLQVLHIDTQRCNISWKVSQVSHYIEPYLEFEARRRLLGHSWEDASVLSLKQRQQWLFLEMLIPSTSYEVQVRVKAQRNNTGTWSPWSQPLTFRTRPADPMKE
Chain of UniProt P01590 (P34902 23-263, chain 3 of 3, further chain): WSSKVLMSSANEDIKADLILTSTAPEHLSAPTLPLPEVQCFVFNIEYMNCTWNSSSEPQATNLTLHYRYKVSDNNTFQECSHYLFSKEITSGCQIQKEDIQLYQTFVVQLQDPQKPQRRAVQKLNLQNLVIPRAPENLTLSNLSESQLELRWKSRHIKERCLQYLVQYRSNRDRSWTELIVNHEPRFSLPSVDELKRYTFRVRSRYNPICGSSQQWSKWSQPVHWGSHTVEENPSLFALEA

Chain of UniProt P16297 (P16297 27-240, chain 1 of 2): as the sequence (P16297 27-240, chain 2 of 3, further chain) above
Chain of UniProt P16297 (P34902 23-263, chain 2 of 2, further chain): as the sequence (P34902 23-263, chain 3 of 3, further chain) above

IL-2 (from UniProt P04351)
Kd [1]: 1 nM | Kd [2]: 0.01 nM
